Test results reported in publication PMC9084902, “Low-Molecular Weight Protamine Overcomes Chondroitin Sulfate Inhibition of Neural Regeneration” (Frontiers in Cell and Developmental Biology, 2022).
Ends that are not written are not given here.

Columns and labels:
[1] = tested on: cervical spinal cord; test: distribution of fluorescent LMWP to spinal cord after subcutaneous administration; format: in vivo, mouse; conditions: 2 h, confocal
Procedure: The TAMRA-labelled LMWP was obtained from commercial provider Caslo ApS (DK-2800, Kongens Lyngby, Denmark). Sixteen micrograms of TAMRA-LMWPor unconjugated TAMRA (in 200 ul of 0.9% NaCl) was injected subcutaneously to upper back area to healthy adult mice (n = 2–3 animals/group). At the end of the experiment (2 h after injection), the animals were perfused with PBS and then with 4% paraformaldehyde (PFA) in PBS. The spinal cord was dissected and further fixed in PFA overnight. One hundred µm-thick longitudinal sections of the cervical spinal cord were cut with vibratome and imaged with Zeiss LSM880 confocal, 20x objective.

[2] = tested on: hippocampal neurons; test: neurite outgrowth on aggrecan substrate, hippocampal neurons; format: cell-based, Wistar rat; conditions: hippocampal neurons (E17 rat), 2 days on aggrecan; 10 μg/ml, precoated with aggrecan or soluble in medium; about 70 neurons/replicate, normalized to control; n = 3; Figure 2L
Procedure: (§1) The cortex or hippocampus were obtained from 17 days-old Wistar rat embryos and transferred to ice-cold preparation solution. Neurons were further isolated exactly as described earlier in Sahu’s publication ([Sahu et al., 2019]). Primary rat cortical or hippocampal neurons (E17 Wistar rats) were cultured in 96-well plates at the density of 20000 cells/well in Neurobasal medium supplemented with B27 serum substitute, penicillin, streptomycin and L-glutamate for 2 days in vitro (DIV). The plates were precoated with aggrecan (5 ug/ml, 150 µl/well). Protamine or protamine peptides were added to the culture medium at different concentrations. To analyze the effect of protamine or its fragment on neurite outgrowth, the plates were coated with 10 μg/ml of protamine or LMWP. For the experiment with chondroitinase, the aggrecan-coated plates were treated with chondroitinase ABC (Amsbio AMS. E1028, lot CF0029) for 4 h followed by 2 times washing with PBS before cell plating, and the cell culture imaging was carried out after 3 DIV incubation with 4 uM LMWP added to the medium. Neurite outgrowth was imaged with phase contrast microscopy (Olympus IX70 microscope and Retiga 2000R digital camera) using both x10 and x20 objectives. Processes of neurons over the diameter of the neuronal soma were interpreted as neurites. Neurite length was measured with ImageJ software and averaged from 2 to 3 independent experiments with 1–2 technical replicas in each independent experiment.

[3] = tested on: hippocampal neurons; test: neurite outgrowth on precoated plastic without aggrecan, hippocampal neurons; format: cell-based, Wistar rat; conditions: precoated 10 μg/ml on plastic, no aggrecan, 2 days; about 70 neurons/replicate; p < 0.0001, n = 7
Procedure: as §1, with “Processes of neurons over the diameter of the neuronal soma were interpreted as neurites.” left out

[4] = tested on: hippocampal neurons; test: cell toxicity seen in neuronal morphology / neuronal cells in vitro; format: cell-based, Wistar rat
Procedure: as §1

[5] = tested on: brain cortex tissue; test: in vivo TUNEL apoptosis assay after cortical injection; conditions: 1.5 μl cortical injection, 0.1 or 1 mg/ml, 3 days
Procedure: For TUNEL apoptosis assay, 1.5 μl of protamine (0.1 mg/ml or 1 mg/ml) or LMWP (0.1 mg/ml or 1 mg/ml) was bilaterally injected to the adult C57Bl6 mouse (n = 10 total) into motor (ML: 1.5; AP: 2) and somatosensory (ML: 1.5; AP: −1.8) cerebral cortex 500–700 micrometers below the brain surface (4 injection sites per concentration of injected protamine and 6 injections per concentration of injected LMWP). After 3 days the animals were anesthetized with pentobarbital sodium and perfused with PBS and then 4%PFA. After paraffine embedding the brains were cut into 7 µm coronal sections. Staining was performed according to the protocol recommended by the commercial TUNEL assay kit (Dead End Fluorometric TUNEL System, Promega). Sections treated with DNase I were used as positive controls. Vectoshield medium with DAPI (Vector Laboratories) was used to visualize nuclei. Images were collected with Axio Imager M.1 fluorescent microscope (Zeiss), AxioCam HR3 digital camera and x10 0.45 NA objective (Carl Zeiss Microscopy) and analyzed with automatic cell counting using FIJI software (Image J, open-source). The fractions of TUNEL positive cells were calculated and averaged over 5 sections per mouse per injection place.

[6] = ref Kaneda et al., 2005; Bromfield et al., 2013; cited from earlier work
Excerpt: Protamine is a small 33 amino acid long protein that takes part in DNA packing during spermatogenesis ([Kasinsky et al., 2011]). Over 60% of the salmon protamine sequence is comprised of arginines so that it interacts strongly with negatively charged DNA phosphates in vivo and potentially with any other negatively charged molecules. […] Protamine sulfate is therefore widely used as a drug in cardiopulmonary bypass surgery to stop the effect of heparin ([Kaneda et al., 2005]; [Bromfield et al. ... || The CS chains even enhance the neurite outgrowth-promoting effect of HB-GAM, and we have ended up in a model according to which the CS chains of the CSPGs display a positive role by concentrating HB-GAM on the matrix and presenting it to neuron surface receptors. According to our model, two polycationic regions separated by a linker are essential to reverse the CS inhibition of neurite outgrowth ([Paveliev et al., 2016]; [Rauvala et al., 2017]). To test our hypothesis we decided to search for peptide structures that are similar to HB-GAM and display similar binding properties. Protamine displa ...

[7] = attenuated total reflectance Fourier transform infrared spectroscopy; ref Umerska et al., 2015; cited from earlier work
Excerpt: Chondroitin sulfates (CS) bare multiple negative charges due to sulfate and carboxyl groups while protamine is a polycation at physiological pH values. […] As an FDA-approved drug for human use as anti-heparin, protamine might in addition have potential to overcome the regeneration inhibiting effe ...

[8] = tested on: oligodendrocyte differentiation; conditions: ref Kuboyama et al., 2017; cited from earlier work
Excerpt: The CS chains even enhance the neurite outgrowth-promoting effect of HB-GAM, and we have ended up in a model according to which the CS chains of the CSPGs display a positive role by concentrating HB-GAM on the matrix and presenting it to neuron surface receptors. According to our model, two polycationic regions separated by a linker are essential to reverse the CS inhibition of neurite outgrowth ([Paveliev et al., 2016]; [Rauvala et al., 2017]). To test our hypothesis we decided to search for peptide structures that are similar to HB-GAM and display similar binding properties. Protamine displa ...

[9] = tested on: PTPRZ (protein tyrosine phosphatase receptor type Z); conditions: ref Kuboyama et al., 2017; cited from earlier work
Excerpt: In the case of HB-GAM we have identified glypican-1 as a neuron surface receptor using unbiased mass spectrometry search of neuron binding sites for the substrate-attached HB-GAM ([Paveliev et al., 2016]). […] Interaction of glypican-1 with LMWP also appears likely since LMWP binds to heparin/heparan sulfate chains. Another possible cell surface receptor of LMWP is the transmembrane receptor PTPRZ (protein tyrosine ph ...

[10] = solid phase binding of mutated PTPσ ectodomain to aggrecan; conditions: 80 nM, 10 μg/ml aggrecan coating, overnight 4°C, HRP anti-Fc/OPD 492 nm
Excerpt: The N-terminal extracellular part of PTPσ (protein tyrosine phosphatase sigma; PTPRS) that contains the three Ig domains (amino acids 1-321) and mediates CSPG binding ([Shen et al., 2009]) was cloned using the PTPσ cDNA kindly provided by Dr. John Flanagan (Harvard University). The PTPσ mutant lacking the CS binding site in the Ig1 domain was produced as described ([Shen et al., 2009]). The recombinants were produced as Fc-tagged proteins in 293T HEK cells and purified on protein A Sepharose.
The competition assay for LMWP in binding of PTPσ to aggrecan was done in a similar way as earlier ([Paveliev et al., 2016]). Briefly, after overnight coating with 10 μg/ml aggrecan (150 ul/well) at 4°C 96-well tissue culture plates (Nunc) were washed two times with 0.05% Tween-20 in PBS and were blocked for 1 h at room temperature with 1%BSA and 0.05% Tween-20 in PBS. The recombinant wild type PTPσ ectodomain or the mutated ectodomain lacking CS binding (80 nM) were mixed with different concentrations of LMWP in 1% BSA and 0.05% Tween-20 in PBS, and were incubated in the plates overnight at 4°C. After washing with 0.05% Tween20 (3 times, room temperature), the wells were incubated for 1 h (room temperature) with HRP conjugated goat anti-human FC part of IgG (1:5000, in 1% BSA and 0.05% Tween20 PBS) to detect the bound PTPσ. […]

TAMRA-LMWP: fluorescent TAMRA-labelled LMWP (Caslo ApS) (VSRRRRRRGGRRRR; also: TAMRA label, site not given here)
fluorescent signal in spinal cord parenchyma ([1]; 16 µg s.c. in 200 µl 0.9% NaCl, compared to TAMRA or noninjected animals, n = 2–3): clear fluorescent signal in the spinal cord parenchyma
parenchymal accumulation in spinal cord ([1]; 16 µg s.c., cervical region): Parenchymal accumulation
perivascular accumulation in spinal cord ([1]; 16 µg s.c., cervical region): Perivascular accumulation

protamine
reversal of the inhibitory effect of aggrecan on neurite outgrowth (comparison among fragments) [2]: lower efficacy in the neurite outgrowth assay
total neurite length versus uncoated control [3]: increased the total neurite length as compared to the parallel control cultures
signs of cell toxicity in neuronal morphology ([4]; hippocampal neurons, 2 days on aggrecan, 10 μg/ml, black arrows point to dead cells, Figure 2E,G): Signs of cell toxicity were observed in neuronal morphology
toxicity for neuronal cells (summary) ([4]; neuronal systems, Figures 2, 4): toxic for neuronal cells
apoptotic cells in brain cortex (TUNEL staining) [5]: high amount of apoptotic cells in brain cortex tissue
affinity for heparin [6]: binds the glycosaminoglycan heparin with high affinity
polyion complexation with CS [7]: Polyion complexation of CS with protamine was demonstrated
effect on CSPG-mediated inhibition of oligodendrocyte differentiation [8]: neutralizes the CSPG-mediated inhibition of oligodendrocyte differentiation
binding to PTPRZ [9]: known to bind protamine

B1: recombinant ectodomain of PTPσ mutated in a critical lysine residue: PTPσ mutant lacking the CS binding site in the Ig1 domain, Fc-tagged, produced in 293T HEK cells (protein, UniProt Q13332 30-1282, looked up)
extracellular domain: EEPPRFIKEPKDQIGVSGGVASFVCQATGDPKPRVTWNKKGKKVNSQRFETIEFDESAGAVLRIQPLRTPRDENVYECVAQNSVGEITVHAKLTVLREDQLPSGFPNIDMGPQLKVVERTRTATMLCAASGNPDPEITWFKDFLPVDPSASNGRIKQLRSETFESTPIRGALQIESSEETDQGKYECVATNSAGVRYSSPANLYVRELREVRRVAPRFSILPMSHEIMPGGNVNITCVAVGSPMPYVKWMQGAEDLTPEDDMPVGRNVLELTDVKDSANYTCVAMSSLGVIEAVAQITVKSLPKAPGTPMVTENTATSITITWDSGNPDPVSYYVIEYKSKSQDGPYQIKEDITTTRYSIGGLSPNSEYEIWVSAVNSIGQGPPSESVVTRTGEQAPASAPRNVQARMLSATTMIVQWEEPVEPNGLIRGYRVYYTMEPEHPVGNWQKHNVDDSLLTTVGSLLEDETYTVRVLAFTSVGDGPLSDPIQVKTQQGVPGQPMNLRAEARSETSITLSWSPPRQESIIKYELLFREGDHGREVGRTFDPTTSYVVEDLKPNTEYAFRLAARSPQGLGAFTPVVRQRTLQSKPSAPPQDVKCVSVRSTAILVSWRPPPPETHNGALVGYSVRYRPLGSEDPEPKEVNGIPPTTTQILLEALEKWTQYRITTVAHTEVGPGPESSPVVVRTDEDVPSAPPRKVEAEALNATAIRVLWRSPAPGRQHGQIRGYQVHYVRMEGAEARGPPRIKDVMLADAQWETDDTAEYEMVITNLQPETAYSITVAAYTMKGDGARSKPKVVVTKGAVLGRPTLSVQQTPEGSLLARWEPPAGTAEDQVLGYRLQFGREDSTPLATLEFPPSEDRYTASGVHKGATYVFRLAARSRGGLGEEAAEVLSIPEDTPRGHPQILEAAGNASAGTVLLRWLPPVPAERNGAIVKYTVAVREAGALGPARETELPAAAEPGAENALTLQGLKPDTAYDLQVRAHTRRGPGPFSPPVRYRTFLRDQVSPKNFKVKMIMKTSVLLSWEFPDNYNSPTPYKIQYNGLTLDVDGRTTKKLITHLKPHTFYNFVLTNRGSSLGGLQQTVTAWTAFNLLNGKPSVAPKPDADGFIMVYLPDGQSPVPVQSYFIVMVPLRKSRGGQFLTPLGSPEDMDLEELIQDISRLQRRSLRHSRQLEVPRPYIAARFSVLPPTFHPGDQKQYGGFDNRGLEPGHRYVLFVLAVLQKSEPTFAASPFSDPFQLDNPDPQPIVDGEEG
modifications: extracellular domain lysine mutation in Ig1 (position not given); Fc tag
binding to CS chains of aggrecan [10]: lacks the ability to bind to CS chains of the aggrecan substrate
